Results reported in publication PMC8219831, “Native mass spectrometry analyses of chaperonin complex TRiC/CCT reveal subunit N-terminal processing and re-association patterns” (Scientific Reports, 2021).

B1: human TRiC subunit CCT4 (natural protein, UniProt P50991 2-539, looked up)
chain: PENVAPRSGATAGAAGGRGKGAYQDRDKPAQIRFSNISAAKAVADAIRTSLGPKGMDKMIQDGKGDVTITNDGATILKQMQVLHPAARMLVELSKAQDIEAGDGTTSVVIIAGSLLDSCTKLLQKGIHPTIISESFQKALEKGIEILTDMSRPVELSDRETLLNSATTSLNSKVVSQYSSLLSPMSVNAVMKVIDPATATSVDLRDIKIVKKLGGTIDDCELVEGLVLTQKVSNSGITRVEKAKIGLIQFCLSAPKTDMDNQIVVSDYAQMDRVLREERAYILNLVKQIKKTGCNVLLIQKSILRDALSDLALHFLNKMKIMVIKDIEREDIEFICKTIGTKPVAHIDQFTADMLGSAELAEEVNLNGSGKLLKITGCASPGKTVTIVVRGSNKLVIEEAERSIHDALCVIRCLVKKRALIAGGGAPEIELALRLTEYSRTLSGMESYCVRAFADAMEVIPSTLAENAGLNPISTVTELRNRHAQGEKTAGINVRKGGISNILEELVVQPLLVSVSALTLATETVRSILKIDDVVNTR
notes: CCT4 subunit of human TRiC; initiator methionine removed, proline exposed, not acetylated (from the measured mass); also called CCTδ; source: Hi5 (Trichoplusia ni) cells, baculovirus pYC35 co-expressing CCT1-8; purified as hTRiC (calmodulin resin, monoQ, SEC); released by RP-HPLC or by 25% DMSO or methanol
B2: human TRiC subunit CCT2 (natural protein, UniProt P78371 2-535, looked up)
chain: ASLSLAPVNIFKAGADEERAETARLTSFIGAIAIGDLVKSTLGPKGMDKILLSSGRDASLMVTNDGATILKNIGVDNPAAKVLVDMSRVQDDEVGDGTTSVTVLAAELLREAESLIAKKIHPQTIIAGWREATKAAREALLSSAVDHGSDEVKFRQDLMNIAGTTLSSKLLTHHKDHFTKLAVEAVLRLKGSGNLEAIHIIKKLGGSLADSYLDEGFLLDKKIGVNQPKRIENAKILIANTGMDTDKIKIFGSRVRVDSTAKVAEIEHAEKEKMKEKVERILKHGINCFINRQLIYNYPEQLFGAAGVMAIEHADFAGVERLALVTGGEIASTFDHPELVKLGSCKLIEEVMIGEDKLIHFSGVALGEACTIVLRGATQQILDEAERSLHDALCVLAQTVKDSRTVYGGGCSEMLMAHAVTQLANRTPGKEAVAMESYAKALRMLPTIIADNAGYDSADLVAQLRAAHSEGNTTAGLDMREGTIGDMAILGITESFQVKRQVLLSAAEAAEVILRVDNIIKAAPRKRVPDHHPC
modifications: N-terminal acetylation
notes: CCT2 subunit of human TRiC; initiator methionine removed (from the measured mass); also called CCTβ; source: Hi5 (Trichoplusia ni) cells, baculovirus pYC35 co-expressing CCT1-8; purified as hTRiC (calmodulin resin, monoQ, SEC); released by RP-HPLC or by 25% DMSO or methanol

Tests used:
[1] = target: human TRiC subunit CCT8 (human) (UniProt P50990); assay: native MS; hTRiC in ammonium acetate pH 7.5 disrupted with 25% (v/v) DMSO, analysed within 30 min; dimers assigned by mass within 12 Da
[2] = target: the molecule itself; assay: intact mass spectrometry of reverse phase fractions (denaturing); RP-HPLC fractions of hTRiC in acetonitrile/TFA elution buffer, 0.1-0.6 μM, nanoelectrospray, QExactive Plus EMR; partially unfolded dimers; dimer masses fitted assuming disulfide formation (-2 Da)

Molecule | percent of all dimer signal [1] | stoichiometry N [2]
human TRiC subunit CCT8 (from UniProt P50990 2-548) (natural protein) | 15% | 
B1 |  | 2
B2 |  | 2
